Measured values published in publication PMC5739284.

Molecular target: His6-sPfUIS3 (recombinant His-tagged soluble P. falciparum UIS3, wild type) (P. falciparum)
Assay: SPR

Substance “GST-His6-LC3B (recombinant) (from UniProt Q9GZQ8 1-120) (natural protein)” has a Kd of 244 nM.
